Experimental data taken from patent US20100233191.

Tests used:
[1] = system: MPP5 (histidine-tagged modified proaerolysin with a PSA cleavage site)
[2] = system: wild-type proaerolysin from Aeromonas hydrophila
[3] = system: MPP1 (proaerolysin with the furin site replaced by the PSA substrate HSSKLQ)

MMP-7, sequence (P09237 95-267): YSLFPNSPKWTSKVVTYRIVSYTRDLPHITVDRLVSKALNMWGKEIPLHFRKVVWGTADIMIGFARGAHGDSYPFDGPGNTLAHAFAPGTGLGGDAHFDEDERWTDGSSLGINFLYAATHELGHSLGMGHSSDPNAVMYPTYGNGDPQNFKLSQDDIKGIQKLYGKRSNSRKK

Substance	Amount Required for 50% Cleavage of MPP5 [1]	Specific Activity Towards MPP5 [1]	Amount Required for 50% Cleavage of Native Proaerolysin [2]	Specific Activity Towards Proaerolysin [2]	hemolysis (ratio to Triton control), MPP1 10^-8 M pre-incubated with PSA in buffer [3]	hemolysis, MPP1 in human plasma or plasma spiked with PSA (10,000 ng/ml) [3]
Trypsin (Type I trypsin)	0.813 µg	5700 nM/µg/min	0.0095 µg	489000 nM/µg/min	–	–
MMP-7	Inactive	0	Inactive	0	–	–
Chymotrypsin	31 µg	150 nM/µg/min	3 µg	1550 nM/µg/min	–	–
hK1 (activated by thermolysin)	Inactive	0	2.63 µg	15.3 fmol/µg/min	–	–
Cathepsin B (cysteine protease)	170 units	1.2 fmol/µg/min	51.6 units	3.9 fmol/µg/min	–	–
Furin	> 0.0032 µg	0.24 nM/µg/min	0.0012 µg	9.69 nM/µg/min	–	–
uPA	173 µg	1.1 fmol/µg/min	7.79 µg	25.8 fmol/µg/min	–	–
Prostate-specific antigen (PSA), also referred as hK3	12.2 µg	0.0635 nM/µg/min	49.7 µg	0.0156 nM/µg/min	about 45% hemolysis	no appreciable hemolysis (i.e. <1% of Triton control
Thrombin	> 12 µg	< 7.8e-07 nM/µg/min	> 12 µg	< 7.8e-07 nM/µg/min	–	–
hK2 (human glandular kallikrein 2)	Inactive	0	–	1610 fmol/µg/min	–	–
